pKd: −log10 of the molar value.
Experiments:
[1] = target: skelemin tandem IgC2 domains 4 and 5 with the interconnecting linker, C1354S (mouse); assay: ITC
[2] = target: integrin β3 cytoplasmic tail (UniProt P05106); assay: ITC
Chain of integrin β3 cytoplasmic tail (P05106 742-788): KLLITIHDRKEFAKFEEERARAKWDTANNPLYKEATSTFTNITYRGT

Work on “integrin αIIb cytoplasmic tail peptide (starting from W988)” yielded a dH [1] of -1.6 kJ/mol, a stoichiometry N [1] of 1.26 and a pKd [2] of 5.24.

Reference: PMC4222533
